B1: GTGFEVYIPGA (peptide)
peptide: GTGFEVYIPGA
B2: GTGWEVHLGKG (peptide)
peptide: GTGWEVHLGKG
B3: ASEWTVYAGNK (peptide)
peptide: ASEWTVYAGNK
B4: QSCRSILYGDG (peptide)
peptide: QSCRSILYGDG
B5: SCRSILYGQ (peptide)
peptide: SCRSILYGQ
B6: SEWTVYAGN (peptide)
peptide: SEWTVYAGN
B7: TGWEVHLGK (peptide)
peptide: TGWEVHLGK
B8: NGFEVYLPG (peptide)
peptide: NGFEVYLPG

T1 sequence (P07288 25-261 limits assumed): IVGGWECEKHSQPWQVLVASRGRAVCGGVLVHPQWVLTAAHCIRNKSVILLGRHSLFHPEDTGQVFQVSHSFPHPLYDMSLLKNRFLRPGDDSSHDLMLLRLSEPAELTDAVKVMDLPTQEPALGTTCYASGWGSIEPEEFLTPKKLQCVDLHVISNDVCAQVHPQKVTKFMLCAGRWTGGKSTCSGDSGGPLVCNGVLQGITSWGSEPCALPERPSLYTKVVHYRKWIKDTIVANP

In one test the target is human prostate specific antigen (PSA) labelled with biotin (human) (UniProt P07288). The experiment in a line: 5-mer peptide microarray, biotin-PSA 100 ng/ml, Streptavidin Cy5 detection.
Chain of human prostate specific antigen (PSA) labelled with biotin (human) (P07288 25-261 limits assumed): as above
WTVYA (peptide) had a rank by binding signal to PSA (among 405 top sequences) of 3 rank.
Molecule WEVHL (peptide) displayed a rank by binding signal to PSA (among 405 top sequences) of 28 rank.
As to RSILY (peptide), the rank in the list of 405 sequences with the highest average signal intensity was determined as 307 rank.
On to FEVYL (peptide), for which the rank by binding signal to PSA (among 405 top sequences) was found to be 1 rank.

A further test has as its target T1, human prostate specific antigen (PSA) labelled with biotin (human, UniProt P07288 25-261, labelled with biotin using EZ-Link NHS-PEG4-biotinylation kit).
T1 construct: Applied in solution at 100 ng/ml to the peptide arrays and detected with Streptavidin Cy5
Nature of the test: Double Substitution/Deletion Array, biotin-PSA, Streptavidin Cy5 detection. On the procedure:
(§1) Binding Assay: PSA labelled with biotin using EZ-Link NHS-PEG4-biotinylation kit (Thermo Fisher Sci., Inc. Rockford, Ill.) was incubated in SecureSeal hybridization chamber (Grace Bio-Labs, Bend, Oreg.) at concentration 100 ng/ml in 1×TE binding buffer with 1% alkali soluble casein at 25° C. for 12 hrs. Array was washed 3× with 1×TE buffer and stained with Streptavidin Cy5 in 1× binding buffer with 1% alkali soluble casein at 25 C for 1 hr, and washed 3× with 1×TE buffer and finally with 0.1×TE buffer and scanned using a 2 micrometer MS200 scanner (Roche/Nimblegen, Madison, Wis.).
The top sequences selected from the Extension Array (Table 2, column 3) were used to design Double Substitution/Deletion Arrays as shown in column 4 of Table 2. Single and double substitution scan performed as described in Example 3 were used to optimize PSA binders to achieve highest signal intensity and confirm specificity of each amino acid in motif sequence (Table 2, column 5).
On to B1, for which the binding result is listed as “binds”.
As for B2, the binding result is on record as “binds”.
On the same count and under the same terms, as for B3, the entry is “binds”.
On the same count and under the same terms, for B4 the value was “binds”.

In the next test the target is T1, human prostate specific antigen (PSA) …. The experiment in a line: Extension Array (160,000 members, 5 replicates), biotin-PSA, Streptavidin Cy5 detection. The procedure:
as §1
Two dominant F[QET]VY[LI] and W[QET]V[YH][LAV] clusters described above were related by having similar amino acids F or W at position 1 and V at position 3. To find other possible binder motifs we excluded sequences with these features from the 5-mer Array data and performed PEPLIB analysis with top 32 sequences from the remaining dataset as shown in FIG. 11. […] Four sequences, FEVYL (SEQ ID NO: 1), WTVYA (SEQ ID NO: 2), WEVHL (SEQ ID NO: 3), and RSILY (SEQ ID NO: 4), selected from the 5-mer Array were extended by all possible dimers at both N- and C-terminus using all 20 natural amino acids (×) to design Extension Arrays each of them consisting of 160,000 members synthesized in 5 replicates (Table 2). Top twelve sequences for each library selected by signal intensity of PSA binding were used to generate Logo plots shown in FIG. 12. […] For example, FEVYL motif (SEQ ID NO: 1) prefers exclusively P at the C-terminus, WTVYA motif (SEQ ID NO: 2) prefers acidic amino acid either D or E at the N-terminus and G at the C-terminus, whereas RSILY motif (SEQ ID NO: 4) prefers C at the C-terminus, an amino acid that was not present in the 5-mer arrays.
Turning to B5, the binding result is listed as “binds”.
On to B6, for which the binding result is “binds”.
Same read-out and setting: as for B7, the entry is “binds”; as for B8, “binds”.

(Values after patent US20190086411A1 (ROCHE SEQUENCING SOLUTIONS, published 2019).)
